T1: human TNFR2 overexpressed on CHO-S cells (CHOS-hTNFR2) (human, UniProt P20333 23-461)
T1 construct: also called hTNFR2 CHO-S; human TNFR2 molecule overexpressed on CHO-S cells
T1 sequence: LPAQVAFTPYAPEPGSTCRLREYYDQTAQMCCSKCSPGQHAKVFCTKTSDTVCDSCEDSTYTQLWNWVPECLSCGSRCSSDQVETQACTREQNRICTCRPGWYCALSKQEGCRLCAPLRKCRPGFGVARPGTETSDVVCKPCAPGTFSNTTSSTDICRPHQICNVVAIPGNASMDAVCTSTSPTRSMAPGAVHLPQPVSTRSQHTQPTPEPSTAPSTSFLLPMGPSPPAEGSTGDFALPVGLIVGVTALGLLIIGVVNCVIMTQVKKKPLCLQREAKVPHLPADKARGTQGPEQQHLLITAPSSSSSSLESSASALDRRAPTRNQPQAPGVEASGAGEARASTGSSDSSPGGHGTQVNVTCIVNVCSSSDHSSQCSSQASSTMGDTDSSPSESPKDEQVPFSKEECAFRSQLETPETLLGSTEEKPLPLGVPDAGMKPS

T2: cynomolgus monkey TNFR2 overexpressed on CHO-S cells (CHOS-cTNFR2) (cynomolgus monkey, UniProt P20333 23-461 (human entry))
T2 construct: also called cTNFR2 CHO-S
T2 chain: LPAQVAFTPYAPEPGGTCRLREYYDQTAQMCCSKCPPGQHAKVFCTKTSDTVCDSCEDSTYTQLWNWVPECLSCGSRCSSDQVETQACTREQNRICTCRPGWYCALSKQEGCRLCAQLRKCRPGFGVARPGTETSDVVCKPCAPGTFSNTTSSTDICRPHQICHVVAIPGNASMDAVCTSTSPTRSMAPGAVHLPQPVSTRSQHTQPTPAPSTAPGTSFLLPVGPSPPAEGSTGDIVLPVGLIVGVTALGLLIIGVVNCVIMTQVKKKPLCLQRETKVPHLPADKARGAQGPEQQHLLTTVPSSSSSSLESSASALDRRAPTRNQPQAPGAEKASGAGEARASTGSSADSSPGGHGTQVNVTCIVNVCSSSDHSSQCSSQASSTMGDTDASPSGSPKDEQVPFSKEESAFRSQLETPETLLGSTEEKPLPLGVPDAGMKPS


Key:
[1] = molecular target: T1, human TNFR2 overexpressed on CHO-S …; assay: flow cytometry on CHO-S cells overexpressing human TNFR2 (chimeric antibody 69B1 beside the humanized antibodies), MFI-FL2A; unit taken from the axis Conc log(nM)
Description: (§1) In the study, the binding of the antibodies, after being diluted in a gradient, to a stable CHO-S strain line overexpressing human TNFR2 on the surface was assayed by using a flow cytometer.
(§2) CHOS-hTNFR2 cells were counted and diluted to 2×10⁶ cells/mL, and added to a U-bottom 96-well plate at 100 μL/well. The mixture was centrifuged at 300 g for 5 min, and the cell medium was removed. Samples (the humanized antibodies hz3C4.7, hz69B1.5, hz69B1.6, hz69B1.11 and hz69B1.20, the chimeric antibody 69B1, and the positive control antibody OPI) (the antibodies were subjected to a three-fold dilution in PBS from the maximum antibody concentration of 300 nM) were added to the U-plate, and the cells were resuspended at 100 μL/well and left to stand on ice for 30 min. The suspension was centrifuged at 400 g for 5 min, and the supernatant was removed. The cells were washed twice with PBS. The mixture was centrifuged at 300 g for 5 min, and PBS was removed. 100 μL of anti-human Fc PE-labeled secondary antibody (SoutherBiotech; 2040-09) (diluted at a 1:100 ratio in PBS) was added to each well and incubated on ice for 30 min in the dark. The mixture was centrifuged at 400 g for 5 min, and the supernatant was removed. The cells were washed 3 times with PBS. The cells were resuspended in 200 μL of 1×PBS and assayed by FACS.

[2] = molecular target: T1, human TNFR2 overexpressed on CHO-S …; assay: flow cytometry on CHO-S cells overexpressing human TNFR2 (positive control), MFI-FL2A; unit taken from the axis Conc log(nM)
Description: as §1, §2

[3] = molecular target: T1, human TNFR2 overexpressed on CHO-S …; assay: flow cytometry on CHO-S cells overexpressing human TNFR2 (positive control), MFI-FL2-A; unit taken from the axis Conc log(nM)
Description: (§3) In the study, the binding of the chimeric antibodies of the present invention, after being diluted in a gradient, to a stable CHO-S cell strain overexpressing human TNFR2 on the surface was assayed by using a flow cytometer. cDNAs encoding human TNFR2 (SEQ ID NO: 60) and cynomolgus monkey TNFR2 (SEQ ID NO: 61) were cloned into pCH01.0 vectors (Invitrogen), which were transfected into CHO-S cells (Invitrogen) to produce CHO-S cells overexpressing human TNFR2 (CHOS-hTNFR2) and CHO-S cells overexpressing cynomolgus monkey TNFR2 (CHOS-cTNFR2).
(§4) CHOS-hTNFR2 cells or CHOS-cTNFR2 cells were counted and diluted to 2×10⁶ cells/mL, and added to a U-bottom 96-well plate at 100 μL/well. The mixture was centrifuged at 300 g for 5 min, and the cell medium was removed. The dilutions of the samples (the chimeric antibodies 3C4, 69B1, and 72G8 and the positive control antibody OPI) (the antibodies were subjected to a three-fold serial dilution in PBS from the maximum antibody concentration of 300 nM) were added to the U-plate, and the cells were resuspended at 100 μL/well and left to stand on ice for 30 min. The suspension was centrifuged at 400 g for 5 min, and the supernatant was removed. The cells were washed twice with PBS. The mixture was centrifuged at 300 g for 5 min, and PBS was removed. […]

[4] = molecular target: T2, cynomolgus monkey TNFR2 overexpressed …; assay: flow cytometry on CHO-S cells overexpressing cynomolgus monkey TNFR2 (positive control), MFI-FL2-A; unit taken from the axis Conc log(nM)
Description: as §3, §4

EC50 [1] [nM]	EC50 [2] [nM]	EC50 [3] [nM]	EC50 [4] [nM]	Binder
0.489	–	–	–	chimeric antibody 69B1 (antibody, human IgG1, kappa, V domains shown) VH: QIQLVQSGPELKKPGETVKISCKASGYTFTDYSMNWVKQAPGKGLKWMGWLNTETGEPIYADDFKGRFVFSLETSASTAYLEINNLNDEDTATYFCAREAIYYGTSYVLDYWGQGTSVTVSS VL: DIVLTQSPASLAVSLGQRATISCRASESVEYYGTNFMQWYQQKPGQPPKLLIYSASNVESGVPARFSGSGSGTDFSLNIHPVEEDDIAVYFCQQSRKDPSTFGEGTNLEIKR
–	0.486	2.62	0.431	positive control antibody OPI (humanized antibody SBT-002e in WO 2017083525) (antibody, V domains shown, also called Benchmark OPI) VH: QVTLKESGPALVKPTQTLTLTCTFSGFSLSTSGMGVGWIRQPPGKALEWLAHIWWDDDKFYNPSLKSRLTISKDTSKNQVVLTMTNMDPVDTATYYCARLTGTRYFDYWGQGTTVTVSS VL: DVQMTQSPSSLSASVGDRVTITCKASQDINKFIAWYQQKPGKAPKLLIHYTSTLQPGIPSRFSGSGSGRDYTFTISSLQPEDIATYYCLQYGNLWTFGGGTKVEIK
